Data reported in paper PMC5175368.
Positions count from the first letter of the chain named.

B1: PA1StdG (structured_DNA)
DNA: AGAGAGCGTCGTGTGGACCATGGGGTGAGTGGGTAGGTGTCCTGAGGAGGTGCGCAAGT
B2: PA1StdA (structured_DNA)
DNA: B1 DNA with G24A, G32A

What follows are binders tested against PA63 (cleaved protective antigen) (Bacillus anthracis, UniProt P13423 197-764) (assay: filter binding).
Chain of PA63 (cleaved protective antigen) (P13423 197-764): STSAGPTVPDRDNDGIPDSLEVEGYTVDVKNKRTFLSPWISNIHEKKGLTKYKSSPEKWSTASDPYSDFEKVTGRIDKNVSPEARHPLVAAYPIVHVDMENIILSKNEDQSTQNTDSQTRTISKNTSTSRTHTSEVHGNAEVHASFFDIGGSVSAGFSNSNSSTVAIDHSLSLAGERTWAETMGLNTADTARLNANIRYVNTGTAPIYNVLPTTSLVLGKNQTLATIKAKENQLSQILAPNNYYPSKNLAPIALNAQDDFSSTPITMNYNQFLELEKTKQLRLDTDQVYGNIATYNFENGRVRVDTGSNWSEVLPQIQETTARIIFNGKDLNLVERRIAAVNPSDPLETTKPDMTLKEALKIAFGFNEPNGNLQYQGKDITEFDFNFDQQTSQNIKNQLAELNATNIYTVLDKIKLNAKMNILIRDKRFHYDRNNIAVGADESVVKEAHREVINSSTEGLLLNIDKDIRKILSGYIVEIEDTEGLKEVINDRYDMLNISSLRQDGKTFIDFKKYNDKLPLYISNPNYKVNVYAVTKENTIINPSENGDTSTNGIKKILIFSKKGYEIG

Binder | binding result
CGTGTGGACCATGGGGTGAGTGGGTAGGTGTCCTGAGGAGGT (structured_DNA) [PA1T4StdG] | no binding
CGTGTGGACCATGGAGTGAGTGAGTAGGTGTCCTGAGGAGGT (structured_DNA) [PA1T4StdA] | no binding
B1 | no binding
B2 | no binding
